# Data reported in US8778303B2, “99mTc-labeled 19 amino acid containing peptide for use as phosphatidylethanolamine binding molecular probe and radiopharmaceutical” (The Medical College of Wisconsin, Inc., priority 2008, dated 2014).
# Assays:
# [1] = Description: Blood half-life and pharmacokinetic studies. The animal protocol used was approved by the Institutional Animal Care and Use Committee under the NIH guideline. Healthy Sprague Dawley rats were injected with radiolabeled Duramycin (2.3 nmole) via the tail vein. At each designated time point, including 0, 1, 5, 15, 30, and 60 min, 50 μl of blood was withdrawn from a pre-installed femoral artery catheter and collected in heparinized tubes. The blood sample was centrifuged at 5000 g, and the radioactivity in the cellular and plasma fractions was measured separately by direct gamma counting using an energy window of 140±15 keV. The data output included total blood activity with time, and the activity associated with blood cells and the plasma, respectively. The blood half-life measurement was conducted in triplets. To analyze the pharmacokinetics of the radiopharmaceutical, 10 μl of the plasma or urine sample was analyzed using HPLC method 2 which involves the physical separation of molecules based upon the matrix-solvent interactions.
# [2] = tested on: acute cardiac cell death; test: Imaging of cardiac cell death after coronary ischemia with or without reperfusion (Example 2); assay type: in vivo, rat
# Description: Cardiology applications include imaging cardiac cell death in heart diseases, such as acute myocardial infarction, myocarditis, myocardial ischemia, and heart transplant rejection. In an experimental example using a rat model, 99mTc-Duramycin was injected into a control rat (FIG. 10A) and a rat in which coronary ischemia was induced, followed by reperfusion (FIG. 10B). Both rats were subsequently imaged. […] A similar experiment was performed using a rat model where induced coronary ischemia was not followed by reperfusion.
# [3] = Stability of purified radiotracer in aqueous solution; assay type: physicochemical; details: once purified
# Description: HPLC method 2. Jupiter C18 column (90 Å pore size, 250×4.6 mm) was used with a buffered mobile phase system consisting of phosphate buffer (10 mM sodium phosphate, pH 6.7) and acetonitrile at a flow rate of 1.0 ml/min at room temperature. A baseline of 5 min at 90% buffer A (phosphate buffer, pH6.7) and 10% buffer B (acetonitrile) was followed by a linear gradient to 10% buffer A and 90% buffer B in 30 min. The level of radioactivity in the HPLC elute was monitored by gamma counting at an energy window of 140±15 keV.
# HYNIC-Duramycin was labeled with ^99mTc using the tricine-phosphine co-ligand system. Specifically, 15 μg of HYNIC-Duramycin was mixed with 40 mg of tricine, 1 mg of TPPTS and 20 μg SnCl2 in 0.8 ml at pH 5.3. The labeling was initiated with the addition of about 1 mCi of ^99mTc. The incubation was allowed to proceed for 40 min at room temperature. The final radiopharmaceutical, ^99mTc-HYNIC-Duramycin, was analyzed and purified using HPLC method 2. After purification, acetonitrile was removed by evaporation under nitrogen, and ^99mTc-HYNIC-Duramycin was reconstituted in saline for usage. ^99mTc-HYNIC-Duramycin^1 was synthesized in the same fashion. For stability tests, cysteine challenge was carried out at a cysteine-to-^99mTc-Duramycin ratio of 100 to 1, in 0.01 mM phosphate buffer (pH 6.8) for 2 hr at room temperature. The sample was analyzed with radioHPLC (method 2).
smiles,measurement,setting,value
"CC(C)=NNc1ccc(C(=O)NCCCC[C@@H]2NC(=O)[C@@H](N)CS[C@@H](C)[C@H]3NC(=O)[C@H](CC(N)=O)NC(=O)CNC(=O)[C@H]([C@@H](O)C(=O)O)NC(=O)[C@@H]4CSC[C@@H](NC(=O)[C@H](CCC(N)=O)NC2=O)C(=O)N[C@H]2CS[C@@H](C)[C@@H](NC(=O)[C@H](Cc5ccccc5)NC(=O)[C@@H]5CCCN5C(=O)CNC(=O)[C@H](Cc5ccccc5)NC(=O)[C@H](CNCCCC[C@@H](C(=O)O)NC3=O)NC2=O)C(=O)N[C@@H](Cc2ccccc2)C(=O)N[C@@H](C(C)C)C(=O)N4)cn1 [^99mTc-HYNIC-Duramycin, metal not drawn]",radio-HPLC analysis of plasma samples,[1]; after intravenous injection,majority of the injected radioactivity remained as the parent
same,radioactivity in the blood associated with the plasma fraction,[1]; all time points,greater than 95%
same,imaging of acute cardiac cell death after reperfused coronary ischemia,"[2]; infarct model rat, 120 minutes after injection",can be seen
same,imaging of cardiac cell death following nonreperfused coronary ischemia,[2]; rat model,successfully imaged
same,time with no significant level of detached 99mTc detected,[3],at least 24 hrs
